The record followed here is patent US20140308291A1 (INTEGRATED BIOTHERAPEUTICS, published 2014).

The test concerns the target T1, wild-type gamma hemolysin B subunit (HlgB) (Staphylococcus aureus, UniProt Q2FVK1 27-325).
T1 construct: also called Gamma B; gamma hemolysin component B
T1 sequence: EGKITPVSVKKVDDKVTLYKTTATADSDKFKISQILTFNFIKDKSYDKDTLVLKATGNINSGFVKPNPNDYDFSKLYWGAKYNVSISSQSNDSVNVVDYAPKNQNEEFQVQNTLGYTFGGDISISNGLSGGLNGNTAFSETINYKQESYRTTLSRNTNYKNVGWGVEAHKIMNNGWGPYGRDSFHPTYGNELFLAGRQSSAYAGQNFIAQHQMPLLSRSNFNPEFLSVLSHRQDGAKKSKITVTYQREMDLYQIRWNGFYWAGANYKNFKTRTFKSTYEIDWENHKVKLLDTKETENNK
Kind of test: MPD-based oligomerization assay (40% MPD, 24 hours), SDS-PAGE without boiling.

B1: LukS-PV triple mutant T28F/K97A/S209A (Mut9) (other)
chain: HHHHHHDNNIENIGDGAEVVKRTEDTSSDKWGVFQNIQFDFVKDKKYNKDALILKMQGFINSKTTYYNYKNTDHIKAMRWPFQYNIGLKTNDPNVDLINYLPANKIDSVNVSQTLGYNIGGNFNSGPSTGGNGSFNYSKTISYNQQNYISEVEHQNSKSVQWGIKANSFITSLGKMSGHDPNLFVGYKPYSQNPRDYFVPDNELPPLVHSGFNPAFIATVSHEKGSGDTSEFEITYGRNMDVTHATRRTTHYGNSYLEGSRIHNAFVNRNYTVKYEVNWKTHEIKVKGHN
For B1, the binding result was “no binding”.
